# System: Saccharomyces cerevisiae
# Assay: transcriptional activation domain activity (GFP:mCherry ratio, weighted mean of sorted bins, harmonized to initial dataset scale) (arbitrary fluorescence ratio units); higher = stronger transcriptional activation
# Conditions: beta-estradiol 1 µM; induction time 4 h
# Procedure: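 53-aa protein tiles (fungal proteins plus yeast TF control tiles) fused C-terminally to a DBD-estrogen-binding domain-mCherry synthetic TF, integrated in S. cerevisiae (URA3 locus) with a GFP reporter. Cells were induced with 1 uM beta-estradiol for 4 h at 30 C, FACS-sorted into 8 bins by GFP:mCherry ratio and barcodes sequenced. Activity is the read-weighted mean bin fluorescence (GFP:mCherry), averaged over barcodes (median 12); tiles under 50 reads were discarded. New active-learning values were harmonized by linear fit onto the scale of the initial (Hummel et al.) dataset. The assay saturates at low and high signal.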
row,Sequence,transcriptional activation domain activity
1,ALCEDRSQTWHPGTQLDFPQELLDQLNYYLVNLRKYFNNESILFLVYLGCVIF,59600
2,LFFHILFPFFFFFQFLFSLFFFSFFFHSFFFLYFLFFPGGFFFQFCCFFFPSF,44800
3,PKEDVQPEPEAQPAESVEAAPASEEQAPVEKTEEAPATEETEESRPSPPAARL,37600
4,YMYLVIVVTFLSILKTSQAIAVVWVQNVLFFANPDIARTLLNIAWWQNSVTLM,54800
5,GHGSSDGGRPPAKRARKAINCEPCRSSKLKCDRNRPCSSCVLRGTAAQCYPGS,38800
6,CGQILLTICLLPLLFFFFFFFFWSKGVSPFLSHLSSVLLIMLGRIMQIVVGLW,38300
7,LHLFTNIDILKYDYGHIREDHIWVCLMHFTKRSRVVRWLVKSIYRPLLLGGLR,77200
8,IYIFPINTTIASFALGYLSIFYLIYAILTVLPTFFFDCPYGTPFSALMWRISH,62300
9,CIVLEKYIGRLLGLPCDMVFSVFTAASTLLYDSQTKEPNPDTSRRLKLCIHWL,68500
10,ARGEKNPPMTQKDLATKVNEKPSVINDYESGRAVPDQKVLAKLERALGVKLRG,50400
11,VIHTTAKPYKLHFSNTLLVSTVGLLALLVTTMVFVPWNNYYLPRKWGVFLICF,42700
12,ANRRMSLVCFLFIVVRYVSIAALVLNGVGFYGTMFDMDSCTHFRLAPPVTKMV,44900
13,DRFQLKKFGGYQVEFINYDYGVLQDVMLFSLQRHVNCQEVGVKMLWTIIISEW,49000
14,DSDTRRRGGEGGHRMRSSIACTRCRRSKIKCENQGVGSQCKACHGQGRECTYP,31300
15,MPPKRGRPKKASTPPPAPVEDEAPAPVAAPRGRGRPRKVQPSGDPEQTTAPTP,28500
16,MFVVLAMLLVILVVIFIFVIFVLIVLIFVILVMLLMLFFILIVIIAVIVLFFF,16700
17,KDATGDDAARARGGDKGGEREKAGGKGGRRGPKEKEKGKQKAKESKGAAGFAE,55600
18,GYDDTVVLDGCYAAAIRWKSFAYVSTAVRISWKRYLMRFLLRISPWLTIIFSV,57600
19,ANLYVVLTLYSYTWIQVLIVSLSILLYFVFIAIYSQFNTFIFAGHIRLFGNGL,57500
20,SFSSYSSLPSFPSFPYFPSFPFLPFLPFSCVLFLLFLPFLHFLLLPSFPFFYL,70900
21,IGTSSTGDLECCLFTLLLFSWFWGLQTFLSICYYYGSFVSQAFFFFFHFFFFW,53800
22,SKWTTVDADDDLMRTFIRAYFLYEYDWFTFFHKDYFLDDMLAGSSTFCSPLLV,42000
23,IHCLDSLFLLYMLTIFYLLWYSSLIFPLWCMISLYYFIVLSSTSLLGLSFISL,71500
24,TMSTVMVVGSDDKKVKEVGEALKSKLGVKGGGKGSRWSGKFTGVWKDSREGAL,27000

row,Sequence,transcriptional activation domain activity
1,FPEMITILIFTWSHNPLPHLVWHNQQECGSSLSTRFLCIFAVILCIWFVKRVF,59700
2,ESLKHHEGINMVWKKFQSIFRIIEGIVYYEPVYRAFVRHILHHLHLDNVLWVD,70300
3,MSTNERKKQRFVKSIHKEKKNTACCSSTNVIGTSKLSSPVIAVVVVVVVVCWG,45100
4,MYTYTITFLSFISTIPLHSFLLFEQAYEYLCILLSLTVCLQTQLLLNICLLPF,73000
5,LGAIIYIYLCCHGSLTMVDLCTLLALNILNNVDGQCTRILCWWVSFAWCMYPG,58800
6,MFESVNLDENSPEDRELAKVLSPPGSYLSPASLDSGSSFTNSGTSTSCFEPKN,32400
7,MYPFLFFLSFLLFSSLTFLFSLLSFEFKFFFTFSSSFFFFCLTLCFFCQSFFF,36400
8,KPPCVWCRAVGTAASMLSNLLANGLLAFQCHMGWSIVYIAALLCIIYATTLSL,38300
9,NRNQDAAEPSAAASSSAAAPAETPARGGNRQNDGANNQGGNNQNNGGNNRQQE,41100
10,AKQGEDDAEKSKRGRKRKESETLEANGEEAGDDAEPAAKKAKPASKPASKAAA,30100
11,PEEEEQAEAGVDSSIVEIAPKRGRGRPRKSLPTEGTTAEAPAKRGRGRPKKVS,27600
12,QKVGSDKTPGGGSSQYIWLIVYLSISLLSSVLVATTMLLIYTGSLRASVILHE,53500
13,VDADTASSVSGMTGGRSARWREDVMELCLACVAVGCVKDVGAVNNYHQTGELR,42700
14,PEVMHALLFWTSNLLLFGINAIAFSKVSWFITLIRLVVNCRQKVALWMLMVFS,60100
15,VLLHLNRYMSIFGNLQILILVGLTSCCRTSHIYHMVLLLVQQHTLHRRYVLHA,69400
16,MADVSSARINIDRAKQGRGLGRVATAGCSRDRILLIRSSHSVWRAACHLWAVP,60500
17,MGRVGGLFIMEGCLCVYRLLLYPSSCVWVSDTRGWLWLWWLWWWVVVVVWGVC,44600
18,ASKEGEREKEGGREKEGNEGKKEGDKEEGEKKEGTDKEEEEKGGEKGKGSGEE,47900
19,TFLGFFDFTCSSPSYVIHHLDITNLFVSPFLFFPSFPSIFIFCWNILILGLFE,57300
20,TLHVCFVEMRLADVVVDFLSRCSATINLAFFDTRLWHPNLLPILGALPLQRLS,87200
21,MEAREGRAGNAFACERCRKHKVRCVPSGTAGICQRCQKARVECIEHVARRRPA,29100
22,SNDSSDEEDRKSRRKSKKKAKDRDASKERSKKDDKGKKKSRTSKGRSRKDEDS,18600
23,RLRKDVGPFSPDDIQKPSLTWIHVRRNNLLLMMAPVRSYTWKAAQTLGEIFGA,28000
24,INKGTNRFSETVLPPQMAAEQSWSDSNMELEICLDYLHNELEVIKKRQEDFEC,60200

row,Sequence,transcriptional activation domain activity
1,KVNQRKENKNNKNDEDNDDDNDDEEGKEKDKEEEKKDKKKKNKKCKHKKNKNK,21700
2,GSEDRRKSSRSRDRRERRSRSRDKSHRDRERERDKDRERRHRDHEPRHSHRDR,43300
3,EGEYKTLATDDLGNILNLNYGETNEVIMNEINDLNLPLGPLSDEKSVKVSTFS,84800
4,TKLCTIGINCIFIIWHIADILIESPSHLPDIFTVFNVIISCSLFLLLFVYFVY,27600
5,GCKRESQEREEDKNIEKIRKKKQSVVNRKSKRRSETNRRNIKRNNRQHAARER,55600
6,MIRPFSIYSITLDVFPWLLNLFFLFFFLILFPLLRNFLFCVVSLIQNIQPLCF,30400
7,NTPPAKKKRDGKKKAAAAGDMGEGEGGGKKVRKPRKDAGTKRGPNKRTAGATG,41100
8,TPANSSSTMALVPKEEQKEEEEKSTPADSGSTTASVPKEEEKEEEKSTPADSG,44400
9,NSTIPLDFMPRDALHGFDWSEEDDMSDGLPFLKTDPNNNGFFGDGSLLCILRS,109000
10,ESEDEGRDTTHDSDNEGDGHDANHGSENEGEGHDTTHDSKIEGAGRDAIRGSH,8090
11,CVGLLCLLDTLHLCFSIHMMYFYLIHNFGNVKAVFDIIWSLKGLGTVQVLLIW,45200
12,MPTVRCLLPFVLFTGLLYRILLSLSFLLVLPFLILLFSSPSLLSCFLLLAYIL,57000
13,MMMGTIVKSFFLFTFTFSIFFFYFFPRVLFTPFFFYILDLSLFFIVVLIFFSF,54300
14,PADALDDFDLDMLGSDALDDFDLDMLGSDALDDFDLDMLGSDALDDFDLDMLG,152000
15,DRPRRDRADDKEATTPRSDAGSHKSRRRSRSRDDERRHSRRHRGGDGDFYRGG,17700
16,MVIQKYMFLYFLFCILIFLCIQDLDQDKYNDSLWCSRPFYCHNLFIIILAFIH,51800
17,ISNHQVYADWWYAWCLTYFMGTHKDIFIVLKKSLKWLPIVGWGMQFFNFIFLA,48400
18,KMLLDHIKKFVITYTGGLVLACDISRYHEVIVQFKSVQVDEYFNVLKEICSLF,53900
19,KSDAAAQVPSRGQKRDRDGDEEGSDAEAGVPGTPIRSSRKTKKRGKKSKEPRE,50200
20,MAYLFLYFTIFFIFFFIAGDGGDDCEIFFLFFFFSFKALFTPFFYLYLYWTSA,25400
21,SLGCLVKQAEYQVDGRSIGMDGYLFFFFFACCCFLYTSGLSFLYLFWFFFLVF,22900
22,SQQRLEVSAMYLFWHMDTVRGLCVRMPGTVMTRAHFFRLLTYYFAMLFLSAAL,57000
23,TGPTNVGLIILIIVSFFQFNFFLPVHQSFAPKLLKHHYIIYRMICSQLSYLVL,60900
